Assay [1] addresses Toxoplasma gondii actin (TgAct1), untagged (Toxoplasma gondii) (UniProt P53476).
For assay [2] the target is unchanged. Kind of assay: epifluorescence microscopy of single filament growth (in vitro actin growth assay); actin growth assay with inclusion of 0.1 mM AMPPNP, compared to MgATP conditions.

On to “Toxoplasma gondii actin (TgAct1), untagged (from UniProt P53476 1-376) (natural protein)”, for which the phosphate (Pi) release after inducing polymerization of 12 µM TgAct1, MESG assay, 1-hour time course (phosphates per TgAct1 in 1 hour) in assay [1] worked out at 3. Moreover, the fold change of the critical concentration with 0.1 mM AMPPNP against MgATP conditions in assay [2] was 2 fold.

For the origin of these results see article PMC10902351.
